Measurements taken from the supplement of paper PMC6757056.
± gives the standard deviation of the averaged measurements.

B1: library; a variant is named by its letters at N, in order (parent)
chain: GCUGUCACCGGAAUACCAGCAUCGUCUUGAUGCCCUUGGAAGUCCGGUCUGAUGAGUCCNNNNNGGACGAAACAGC

Experiments:
theophylline [1] = variants of: B1; experiment: FACS-Seq fitted mean relative fluorescence mCherry/BFP without ligand (log10 relative fluorescence); higher = higher reporter protein expression; details: HEK293T, ligand present: no
Procedure: (§1)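 Hammerhead (sTRSV) ribozyme switch libraries with a ligand aptamer grafted on stem I and a randomized N4-6 loop II, cloned into the 3' UTR of mCherry and transiently transfected into HEK293T cells; RNA-Seq 72 h post transfection with ligand added 1 h before transfection; RNA read count / plasmid DNA read count normalized to the non-cleaving sTRSVctl (x100), log10; sequences with >100 DNA reads. FACS-Seq: lentiviral library sorted into 6 bins after 48 h ligand, log-normal fit mean of mCherry/BFP scaled to controls. Printed sequences are partial switch sequences.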

theophylline [2] = variants of: B1; experiment: normalized RNA/DNA level with ligand (relative to sTRSVctl = 100) (log10 (% of sTRSVctl)); higher = less ribozyme self-cleavage, higher mRNA level; details: ligand concentration (+) RNA-Seq: 5 mM, HEK293T, reporter: mCherry (pCS4076), ligand present: yes
Procedure: as §1

theophylline [3] = variants of: B1; experiment: normalized RNA/DNA level without ligand (relative to sTRSVctl = 100) (log10 (% of sTRSVctl)); higher = less ribozyme self-cleavage, higher mRNA level; details: HEK293T, reporter: mCherry (pCS4076), ligand present: no
Procedure: as §1

theophylline [4] = variants of: B1; experiment: FACS-Seq fitted mean relative fluorescence mCherry/BFP with ligand (log10 relative fluorescence); ligand concentration (+) FACS-Seq: 1 mM; higher = higher reporter protein expression; details: HEK293T, ligand present: yes
Procedure: as §1

Variant | FACS-Seq fitted mean (log10) (theophylline [1]) | normalized RNA/DNA level with ligand (log10) (theophylline [2]) | normalized RNA/DNA level without ligand (log10) (theophylline [3]) | FACS-Seq fitted mean (log10) (theophylline [4])
UAUAG | 0.9651 ± 0.0015 | 1.95 ± 0.053 | 1.855 ± 0.015 | 0.896 ± 0.067
UCCUC | 0.414 ± 0.042 | 2.03 ± 0.022 | 2.022 ± 0.015 | 0.566 ± 0.064
UCCUG | 0.994 ± 0.063 | 2.02 ± 0.1 | 1.99 ± 0.037 | 0.905 ± 0.0097
UCCUA | 0.918 ± 0.078 | 2 ± 0.13 | 2.007 ± 0.0046 | 0.92 ± 0.058
AAGGU | 0.228 ± 0.0068 | 1.94 ± 0.047 | 1.72 ± 0.044 | 0.445 ± 0.067
CAUUU | 0.805 ± 0.079 | 2.1059 ± 0.00056 | 1.74 ± 0.12 | 0.945 ± 0.13
CAUUA | 0.275 ± 0.06 | 1.851 ± 0.011 | 1.22 ± 0.14 | 0.761 ± 0.12
GCCCU | 1.072 ± 0.0027 | 1.97 ± 0.025 | 1.98 ± 0.057 | 0.918 ± 0.027
CCCCU | 0.771 ± 0.094 | 2 ± 0.042 | 1.951 ± 0.01 | 0.807 ± 0.053
CCCCC | 0.942 ± 0.16 | 2.0303 ± 0.00068 | 1.97 ± 0.032 | 0.862 ± 0.091
CCCCA | 0.614 ± 0.038 | 2.043 ± 0.0071 | 1.9 ± 0.11 | 0.52 ± 0.035
UCCGG | 1.14 ± 0.16 | 1.97 ± 0.12 | 2.05 ± 0.077 | 1.02 ± 0.03
UCCGA | 0.81 ± 0.1 | 2.12 ± 0.14 | 1.946 ± 0.0097 | 0.6689 ± 0.002
UCCGU | 0.694 ± 0.021 | 2.029 ± 0.013 | 2.03 ± 0.14 | 0.619 ± 0.023
UAUGG | 0.926 ± 0.12 | 1.965 ± 0.014 | 1.86 ± 0.12 | 0.992 ± 0.017
UAUGA | 0.56 ± 0.0061 | 1.92 ± 0.051 | 1.57 ± 0.064 | 0.686 ± 0.033
UAUGU | 0.685 ± 0.011 | 2.111 ± 0.021 | 1.97 ± 0.035 | 0.621 ± 0.026
UAUGC | 0.174 ± 0.099 | 2.02 ± 0.087 | 2 ± 0.11 | 0.278 ± 0.059

Variant | FACS-Seq fitted mean (log10) (theophylline [1]) | normalized RNA/DNA level with ligand (log10) (theophylline [2]) | normalized RNA/DNA level without ligand (log10) (theophylline [3]) | FACS-Seq fitted mean (log10) (theophylline [4])
UCAAU | 0.686 ± 0.07 | 2 ± 0.028 | 1.83 ± 0.095 | 0.789 ± 0.093
UCAAG | 0.7373 ± 0.0072 | 2.034 ± 0.0095 | 1.79 ± 0.16 | 0.974 ± 0.053
UCAAC | 0.851 ± 0.1 | 1.89 ± 0.03 | 1.79 ± 0.049 | 0.879 ± 0.062
UCAAA | -0.0221 ± 0.095 | 1.97 ± 0.042 | 1.3 ± 0.091 | 0.459 ± 0.023
CAUCC | 0.98 ± 0.04 | 2.04 ± 0.045 | 2 ± 0.12 | 1.162 ± 0.0037
ACAUA | 0.248 ± 0.061 | 1.94 ± 0.1 | 1.72 ± 0.045 | 0.427 ± 0.032
ACAUU | 1.04 ± 0.16 | 2 ± 0.036 | 1.85 ± 0.042 | 1.15 ± 0.18
ACAUC | 0.595 ± 0.053 | 2 ± 0.098 | 1.94 ± 0.03 | 0.599 ± 0.055
ACAUG | 0.862 ± 0.2 | 1.913 ± 0.0094 | 1.81 ± 0.02 | 1.01 ± 0.017
ACCGG | 0.955 ± 0.0037 | 1.95 ± 0.021 | 1.94 ± 0.076 | 1.05 ± 0.12
ACCGC | 1.12 ± 0.047 | 2.06 ± 0.056 | 1.99 ± 0.03 | 1.1 ± 0.027
ACCGA | 0.6309 ± 0.0029 | 2.006 ± 0.015 | 1.77 ± 0.059 | 0.7685 ± 0.0034
ACCGU | 0.885 ± 0.043 | 1.952 ± 0.0024 | 1.83 ± 0.039 | 0.856 ± 0.08
ACCUA | 1.18 ± 0.18 | 1.94 ± 0.021 | 1.88 ± 0.16 | 1.136 ± 0.0083
ACCUC | 0.785 ± 0.011 | 2.04 ± 0.034 | 1.98 ± 0.042 | 0.737 ± 0.044
ACCUG | 1.02 ± 0.063 | 2.01 ± 0.025 | 1.89 ± 0.043 | 0.898 ± 0.044
AAUCG | 0.941 ± 0.16 | 2.06 ± 0.06 | 1.87 ± 0.1 | 0.953 ± 0.04
AAUCA | 0.1911 ± 0.00077 | 1.9026 ± 0.0018 | 1.7 ± 0.029 | 0.221 ± 0.08
